Experiments:
Hsp27 ΔNTD GPG (human) = Hsp27 ΔNTD GPG (human) (UniProt P04792); assay: not stated; oligomeric state of Hsp27 GPG, ΔNTD and ΔNTD GPG (Supplementary Figure 8B, 8C); method not given
[1] = target: Hsp27 alpha-crystallin domain (ACD, residues Q80–S176) (human) (UniProt P04792); assay: ITC; K18 tau with Hsp27 ACD (Supplementary Figure 3B); limited by solubility
[2] = target: Hsp27 alpha-crystallin domain (ACD, residues Q80–S176) (human) (UniProt P04792); assay: ELISA; competitive ELISA of K18 tau on Hsp27 ACD (Supplementary Figure 3A); format not told

Chain of Hsp27 alpha-crystallin domain (ACD, residues Q80–S176) (human) (P04792 80-176): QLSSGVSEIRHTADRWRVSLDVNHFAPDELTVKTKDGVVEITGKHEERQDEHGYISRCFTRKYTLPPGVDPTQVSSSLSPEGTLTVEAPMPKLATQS

stoichiometry N (Hsp27 ΔNTD GPG (human)) | Kd [1] [µM] | IC50 [2] [µM] | Substance
2 | – | – | Hsp27 ΔNTD GPG (from UniProt P04792 80-205) (domain or fragment)
– | > 100 | > 100 | K18 tau (the four microtubule-binding repeats) (domain or fragment)

Reference: paper PMC6212398, “Competing protein-protein interactions regulate binding of Hsp27 to its client protein tau” (Nature Communications, 2018)
